From US7183092B2, “Modified luciferase” (priority 2003, dated 2007) come the findings set out here.

Entries after “also recorded” stand apart in the source; their conditions may differ.

Data set [1] is described as follows: Luciferase activity in the presence of nonionic detergent Triton X-100. It counts as biochemical, Photinus pyralis. The note with it: FIG. 4; Triton X-100 up to 5%, 20 ng purified luciferase, 0% ethanol, 33 mM DTT. As to the method:
(§1) The stability of CNBLuc03-06 luciferase (SEQ ID NO: 4), both in purified form and in cell lysates, in the presence of a range of potential inhibitors was assayed. The basic assay contained 40 mM Tris-Acetate at pH 7.8, 1 mM MgSO4, 0.1 mM EDTA (ethylenediaminetetraacetic acid), 500 μM D-Luciferin and 500 μM ATP. Ethanol, DTT (dithiothreitol) and potential inhibitors were included at the concentrations stated.
(§2) The stability of CNBLuc03-06 luciferase (SEQ ID NO: 4) in the presence of Triton X-100 and SDS was determined using 20 ng of purified luciferase per sample using the basic assay conditions and in the presence of 0% ethanol and 33 mM DTT. The effect of detergents on wild type luciferase was determined previously by W. J. Simpson and J. R. M. Hammond (W. J. Simpson and J. R. M. Hammond, (1991) Journal of Bioluminescence & Chemiluminescence, 6. 97–106, incorporated herein by reference). They reported the anionic detergents inhibit luciferase activity, and cationic detergents and nonionic detergents increase the reaction rate when the concentration of detergent exceeds critical micelle concentration (CMC) value but only up to certain concentrations.

The nature of data set [2]: Quantitative in vitro screening of mutant luciferases with chloroform. Type of data set: biochemical, Photinus pyralis. The note with it: screening; 68.8 mM chloroform (0.8% vol.), 10% ethanol, 33 mM DTT, cell lysate supernatant. As to the method: Selected colonies from secondary screening were inoculated and grown in 5 ml LB broth containing 100 μg/ml ampicillin at 30° C. overnight. When the OD660 reached approximately 1, bacterial cells were harvested from 1.5 ml of culture by centrifugation for 3 min at 12,000 rpm (Eppendorf centrifuge model 5415D). Harvested cells were resuspended in 1 ml of 40 mM Tris-Acetate buffer, pH 7.8, and sonicated for 10 seconds using a Branson Sonifer 450, Duty cycle-40 and output control-4. The activity of each luciferase sample, prepared using 10 μl of supernatant from a subsequent centrifugation of sonicated bacterial cell culture, was tested in 200 μl total reaction volume by a Luminometer (Perkin Elmer, model Victor II). Each assay contained 40 mM Tris-Acetate, 1 mM MgSO4, 0.1 mM EDTA (ethylenediaminetetraacetic acid), 33 mM DTT (dithiothreitol), 500 μM D-Luciferin, 10% Ethanol and 500 μM ATP at pH 7.8. Some screening assays also contained 68.8 mM chloroform (0.8% vol.).
Different mutant luciferases were compared quantitatively by determining the percentage (%) inhibition of luciferase activity in the presence of chloroform relative to a control without chloroform. The specific activities of chloroform-tolerant mutants were generally lower as compared to wild type. […] The nucleotide sequence of CNBLuc03-02 is SEQ ID No: 1. The polypeptide sequence of the product of SEQ ID No: 1 is SEQ ID No: 2.

Data set [3] in a line: Stability of CNBLuc03-06 luciferase activity in the presence of HPV chemicals. It counts as biochemical, Photinus pyralis. As to the method: as §1
This effect was confirmed by repeated experiments. With 20 ng purified CNBLuc03-06 luciferase (SEQ ID NO: 4) and in the presence of 2.5% ethanol, 1 mM DTT and 86 mM chloroform an activation of approximately 50% was measured, compared with the absence of chloroform.
The capacity of a variety HPV chemicals to inhibit or activate both wild type luciferase and CNBLuc03-06 luciferase (SEQ ID NO: 4) activity compared to controls without HPV chemicals was tested. Higher concentrations of chloroform (172 mM), methylene chloride (318 mM) or toluene (2.7 mM) were used. The basic assay contained 20ng of purified CNBLuc03-06, 1 mM DTT and 2.5% ethanol. CNBLuc03-06 luciferase (SEQ ID NO: 4) was exposed to each chemical for less than 5 minutes before measuring the light output.

The nature of data set [4]: Thermostability (storage stability) of luciferase. Type of data set: physicochemical, Photinus pyralis. The note with it: FIG. 6-8; 10 μg/ml enzyme kept at 0° C., 25° C. and 37° C. Here is the method: Both purified wild type luciferase and CNBLuc03-06 luciferase (SEQ ID NO: 4) were diluted to 10 μg/ml and aliquoted in three micro-centrifuge tubes for these storage stability studies conducted at different temperatures. The tubes containing wild type luciferase and CNBluc03-06 luciferase (SEQ ID NO: 4) were incubated at three different temperatures, 0° C. (FIG. 6), 25° C. (FIG. 7), and 37° C. (FIG. 8) over time. The assay contained 40 mM Tris-Acetate at pH 7.8, 1 mM MgSO4, 0.1 mM EDTA, 500 μM D-Luciferin, 1 mM ATP, 0% ethanol and 33 mM DTT. The light output was measured every 30 minutes after two initial measurements at time 0 and 10 minutes. For each measurement all the samples were diluted to 2 μg/ml so that 10 μl of each sample could be added to give 20 ng of purified enzyme in each reaction.

Data set [5] can be described thus: Luciferase activity at different pHs. Type of data set: biochemical, Photinus pyralis. As to the method:
20 ng of enzyme was used for each reaction. The pH was maintained at 7.8 by 40 mM Tris-acetate buffer and 33 mM DTT was added to each reaction. Both substrates, MGATP and D-Luciferin were saturated at 1 mM and 500 μM respectively. The values were normalized against the highest RLU (relative light units) at each pH optimum for comparison purpose. CNBLuc03-06 luciferase (SEQ ID NO: 4) has optimum pH of 9, but the high enough activity is retained at lower pHs in which enables us to use this mutant luciferase in case a wide range of pH is required for the assay (between 8–11).

Data set [6] can be described thus: Specific activity of luciferase in the absence of DTT. The note with it: 0 mM DTT, pH 7.8, 1 mM ATP, 500 μM D-Luciferin, three replicates. Type of data set: biochemical, Photinus pyralis. As to the method:
Dithiothreitol (DTT) is an enzyme stabilizing agent used to reduce disulfide bonds (break the bonds) that are not normally formed under physiological conditions. Both purified wild type luciferase and CNBLuc03-06 luciferase (SEQ ID NO: 4) were diluted to 2 μg/ml in 40 mM Tris Acetate buffer at pH 7.8. The assay contained 40 mM Tris-Acetate at pH 7.8, 1 mM MgSO4, 0.1 mM EDTA, 500 μM D-Luciferin, 1 mM ATP, and 0 mM DTT. The light output was measured over time and three replicate measurements were made for each luciferase. The average value of the highest light output reading obtained over time was used to determine specific activity of each enzyme.

A short description of data set [7]: Luciferase activity in the presence of anionic detergent SDS. The note with it: FIG. 5; 20 ng purified luciferase, 0% ethanol, 33 mM DTT. It counts as biochemical, Photinus pyralis. Here is the method: as §1, §2
SDS was used for testing the effect of anionic detergents.

B1: CNBLuc03-06: modified Photinus pyralis luciferase: serine to threonine at 239, aspartic acid to tyrosine at 357, alanine to threonine at 532 (protein, listed as Photinus pyralis)
chain: MEDAKNIKKGPAPFYPLEDGTAGEQLHKAMKRYALVPGTIAFTDAHIEVNITYAEYFEMSVRLAEAMKRYGLNTNHRIVVCSENSLQFFMPVLGALFIGVAVAPANDIYNERELLNSMNISQPTVVFVSKKGLQKILNVQKKLPIIQKIIIMDSKTDYQGFQSMYTFVTSHLPPGFNEYDFVPESFDRDKTIALIMNSSGSTGLPKGVALPHRTACVRFSHARDPIFGNQIIPDTAILTVVPFHHGFGMFTTLGYLICGFAVVLMYRFEEELFLRSLQDYKIQSALLVPTLFSFFAKSTLIDKYDLSNLHEIASGGAPLSKEVGEAVAKRFHLPGIRQGYGLTETTSAILITPEGDYKPGAVGKVVPFFEAKVVDLDTGKTLGVNQRGELCVRGPMIMSGYVNNPEATNALIDKDGWLHSGDIAYWDEDEHFFIVDRLKSLIKYKGYQVAPAELESILLQHPNIFDAGVAGLPDDDAGELPAAVVVLEHGKTMTEKEIVDYVASQVTTAKKFRGGVVFVDEVPKGLTGKLDTRKIREILIKAKKGGKSKL
B1: the “effect of Triton X-100 on luciferase activity” value in data set [1] is recorded as “activated by the nonionic detergent, Triton X-100, up to final concentration of 1.25%; also recorded: maintained activities above the control at all concentrations of Triton X-100”. Further, the “inhibition of luciferase activity in the presence of chloroform relative to a control without chloroform” value in data set [2] was “not only resistant to, but also had the capacity to be activated by chloroform”. The “activation compared with the absence of chloroform” value is given as “approximately 50%” in data set [3] (20 ng purified enzyme, 2.5% ethanol, 1 mM DTT, 86 mM chloroform) and “about 30%” in data set [3] (cell lysates, 5% ethanol, 33 mM DTT, 0.8% chloroform). Also, in data set [3] (FIG. 3, chloroform 172 mM, 20 ng purified enzyme, 1 mM DTT, 2.5% ethanol), the “activation compared to controls, chloroform” value was “approximately 60%”. Further, in data set [3] (FIG. 3, methylene chloride 318 mM, 20 ng purified enzyme, 1 mM DTT, 2.5% ethanol), the “activation compared to controls, methylene chloride” value is given as “approximately 80%”. The “activation compared to controls, toluene” value in data set [3] (FIG. 3, toluene 2.7 mM, 20 ng purified enzyme, 1 mM DTT, 2.5% ethanol) is given as “about 20%”. Further, the “activity retained on incubation over time” value in data set [4] is given as “retained more activity than wild type luciferase”. Further, the “optimum pH” value in data set [5] (FIG. 9, 20 ng enzyme, 33 mM DTT, 1 mM MgATP, 500 μM D-Luciferin) is 9. Also, in data set [5] (up to pH 11), the “activity at elevated pH” value is “high activity at elevated pH (up to pH 11)”. Besides, the “specific activity (highest light output)” value in data set [6] is recorded as 9.6±0.4×10^9 RLU/mg enzyme/sec. For the same molecule, in data set [7], the “effect of SDS on luciferase activity” value is “inhibited luciferase activity significantly; also recorded: retained much more activity at all concentrations of SDS compared to wild type luciferase”.
